Data reported in the Human Domainome abundance scans (Beltran et al. 2025).

B1: Far upstream element-binding protein 3, residues 75 to 150; numbered along this chain, Q96I24 (parent)
chain: RTVITEEFKVPDKMVGFIIGRGGEQISRIQAESGCKIQIASESSGIPERPCVLTGTPESIEQAKRLLGQIVDRCRN

Variants of: B1
Experiment: abundance fitness (aPCA) (normalised: wild type 0, dead -1); higher = more abundant; growth selection in yeast, the domain comes from the species named
Conditions: Homo sapiens

Abundance fitness: each site, then its substitutions
I70: W -0.102 | E -0.004 | A 0.05 | D -0.209 | C -0.023 | P -0.335 | F -0.044 | L -0.035 | Y 0.044 | K -0.138 | V 0.024 | Q -0.064 | M -0.013 | H -0.096 | S -0.055 | G -0.205 | N -0.261 | R -0.024 | T 0.014
L67: G -0.864 | N -0.884 | Q -0.839 | C -0.397 | W -0.981 | Y -1.04 | H -0.908 | E -0.757 | I -0.131 | F -0.367 | S -0.811 | M -0.099 | D -0.884 | T -0.666 | A -0.845 | P -0.649 | R -1.01 | K -0.834
R75: T 0.052 | V 0.008 | Q -0.026 | F 0.003 | W 0.007 | L -0.039 | K 0.043 | H -0.006 | D -0.082 | E 0.047 | A 0.064 | C -0.124 | N -0.126 | M 0.009 | P -0.025 | S -0.021 | G 0.038 | I -0.107
R73: E 0.043 | I -0.136 | G 0.054 | Y -0.151 | N 0.037 | V -0.037 | S -0.04 | T 0.019 | L -0.104 | M -0.048 | D 0.047 | C -0.157 | W -0.089 | F -0.103 | P -0.001
R65: T -0.014 | K 0.012 | Q -0.004 | W -0.069 | V -0.006 | S -0.026 | L -0.017 | I 0.057 | N 0.013 | G -0.053 | Y -0.046
G68: S -0.065 | R -0.036 | A -0.066 | N -0.043 | M 0.001 | Y -0.045 | F -0.17 | H -0.066 | I -0.092 | W -0.065 | D -0.001 | V -0.017 | L -0.046 | C -0.066 | P -0.723 | T -0.06 | E -0.026
C74: Y -0.126 | N -0.007 | M -0.021 | T 0.004 | D -0.068 | A 0.02 | H 0.031 | G 0.041 | W -0.022 | V -0.037 | Q -0.002 | I -0.057 | S -0.01 | K -0.027 | R 0.008 | E -0.041
L66: G -0.134 | C -0.114 | P -0.899 | H -0.148 | E -0.079 | N -0.221 | R -0.061 | D -0.123 | F -0.16 | Q -0.072 | A -0.036 | I -0.056 | Y -0.078 | V -0.115 | W -0.17 | M -0.038 | S -0.064 | K -0.066
N76: W -0.092 | T -0.057 | Y -0.027 | A 0.036 | L -0.028 | K -0.183 | M -0.008 | P 0.007 | R 0.055 | C -0.069 | E -0.025 | F 0.023 | H -0.1 | I -0.178 | Q -0.145
D72: H -0.023 | Y -0.124 | G -0.033 | L -0.083 | P -0.142 | F -0.118 | K -0.048 | M -0.084 | C -0.138 | Q -0.086 | N -0.155 | E 0.003 | W -0.108 | T -0.1 | I -0.225 | A -0.052 | V -0.093 | S -0.035
V71: R -0.151 | I -0.018
